# Numbering of substitutions follows the chain as printed. Numbers in names are those of the source.
# T1: IL-18 receptors on HEK-Blue IL-18 reporter cells (UniProt Q13478 19-541; O95256 20-599, limits assumed)
# T1 sequence (looked up) 1: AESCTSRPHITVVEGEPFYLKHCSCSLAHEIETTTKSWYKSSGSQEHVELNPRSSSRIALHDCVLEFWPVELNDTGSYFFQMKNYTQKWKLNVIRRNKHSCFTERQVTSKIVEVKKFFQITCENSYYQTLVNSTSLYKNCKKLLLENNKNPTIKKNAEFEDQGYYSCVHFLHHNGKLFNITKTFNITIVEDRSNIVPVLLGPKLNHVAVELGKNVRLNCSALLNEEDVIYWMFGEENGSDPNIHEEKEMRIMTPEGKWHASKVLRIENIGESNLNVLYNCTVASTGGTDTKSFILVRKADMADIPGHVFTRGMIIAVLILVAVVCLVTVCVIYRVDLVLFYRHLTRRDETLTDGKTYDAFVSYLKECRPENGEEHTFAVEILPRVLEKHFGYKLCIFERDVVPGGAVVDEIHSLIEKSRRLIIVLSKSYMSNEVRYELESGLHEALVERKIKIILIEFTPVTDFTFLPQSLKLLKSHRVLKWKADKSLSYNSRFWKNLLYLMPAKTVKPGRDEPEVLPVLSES
# T1 sequence (looked up) 2: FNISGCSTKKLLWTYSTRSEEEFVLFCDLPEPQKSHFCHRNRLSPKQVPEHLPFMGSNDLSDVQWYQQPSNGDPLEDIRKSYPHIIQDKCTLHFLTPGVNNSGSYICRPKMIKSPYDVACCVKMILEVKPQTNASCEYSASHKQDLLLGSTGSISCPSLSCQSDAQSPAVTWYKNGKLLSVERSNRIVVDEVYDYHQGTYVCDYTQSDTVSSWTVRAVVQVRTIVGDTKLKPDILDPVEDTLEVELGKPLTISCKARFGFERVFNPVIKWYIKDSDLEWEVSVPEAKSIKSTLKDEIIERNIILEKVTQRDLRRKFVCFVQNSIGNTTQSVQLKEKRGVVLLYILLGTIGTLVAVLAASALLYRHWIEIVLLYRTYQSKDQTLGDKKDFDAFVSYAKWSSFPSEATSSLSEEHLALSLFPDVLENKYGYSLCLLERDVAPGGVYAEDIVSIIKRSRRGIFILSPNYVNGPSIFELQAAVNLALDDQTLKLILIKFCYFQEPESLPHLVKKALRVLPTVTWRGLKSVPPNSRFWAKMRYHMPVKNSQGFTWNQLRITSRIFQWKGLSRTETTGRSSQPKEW
# T2: IL-18 binding protein (IL-18BP) (UniProt O95998 31-194)
# T2 sequence (looked up): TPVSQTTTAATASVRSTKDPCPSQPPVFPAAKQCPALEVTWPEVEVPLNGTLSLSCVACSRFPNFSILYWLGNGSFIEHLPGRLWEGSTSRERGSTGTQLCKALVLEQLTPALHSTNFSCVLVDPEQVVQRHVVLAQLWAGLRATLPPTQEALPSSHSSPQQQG
# T3: interleukin 18 binding protein (IL-18BP) (UniProt O95998 31-194)
# T3 sequence (looked up): T2 sequence (looked up)
# T4: IL-18 receptors on HEK-Blue IL-18 reporter cells (UniProt Q13478 19-541; O95256 20-599, limits assumed)
# T4 sequence (looked up) 1: T1 sequence (looked up) 1
# T4 sequence (looked up) 2: T1 sequence (looked up) 2
# B1: IL-18 variant G3Q, E6H, S7Y, D23A, R27S, D54S, S55R, T63F, N91F, R104Q (ligand)
# chain: YFQKLHYKLSVIRNLNDQVLFIAQGNSPLFEDMTDSDMRDNAPRTIFIISMYKSRQPRGMAVFISVKSEKISTLSSENKIISFKEMNPPDFIKDTKSDIIFFQQSVPGHDNKMQFESSSYEGYFLASEKERDLFKLILKKEDELGDRSIMFTVQNED
# B2: IL-18 variant G3P, E6I, K53N, D54W, S55P, T63S, N91L, R104Q (ligand)
# chain: B1 chain with Q3P, H6I, Y7S, A23D, S27R, K53N, S54W, R55P, F63S, F91L
# B3: IL-18 variant G3L, E6Q, T63H, N91M, R104H (ligand)
# chain: B1 chain with Q3L, H6Q, Y7S, A23D, S27R, S54D, R55S, F63H, F91M, Q104H
# B4: IL-18 variant S7Y, K53H, S55M (ligand)
# chain: B1 chain with Q3G, H6E, A23D, S27R, K53H, S54D, R55M, F63T, F91N, Q104R
# B5: IL-18 variant T34M, S36T, D37E, D40T, N41M, K53T, S55W (ligand)
# chain: YFGKLESKLSVIRNLNDQVLFIDQGNRPLFEDMMDTEMRTMAPRTIFIISMYTDWQPRGMAVTISVKSEKISTLSSENKIISFKEMNPPDNIKDTKSDIIFFQRSVPGHDNKMQFESSSYEGYFLASEKERDLFKLILKKEDELGDRSIMFTVQNED
# B6: IL-18 variant K53V, S55Q (ligand)
# chain: B5 chain with M34T, T36S, E37D, T40D, M41N, T53V, W55Q
# B7: IL-18 variant K53G, S55P, R104K, H109Y (ligand)
# chain: B5 chain with M34T, T36S, E37D, T40D, M41N, T53G, W55P, R104K, H109Y
# B8: IL-18 variant T34L, S36V, D40A, N41S, K53G, S55W (ligand)
# chain: B5 chain with M34L, T36V, E37D, T40A, M41S, T53G
# B9: IL-18 variant K53N, S55A, R104N, P107A, H109Y (ligand)
# chain: B5 chain with M34T, T36S, E37D, T40D, M41N, T53N, W55A, R104N, P107A, H109Y
# B10: IL-18 variant D23G, K53Y, S55Y (ligand)
# chain: B5 chain with D23G, M34T, T36S, E37D, T40D, M41N, T53Y, W55Y
# B11: IL-18 variant K53D, S55Q, H109Y (ligand)
# chain: B5 chain with M34T, T36S, E37D, T40D, M41N, T53D, W55Q, H109Y
# B12: IL-18 variant K53Y, S55G, Q56H (ligand)
# chain: B5 chain with M34T, T36S, E37D, T40D, M41N, T53Y, W55G, Q56H
# Biological target: T1, IL-18 receptors on HEK-Blue IL-18 …
# Assay: cell-based or functional assay
Binder,"Activity, No BP, DF-100000","Activity, No BP, DF-500000","Activity, No BP, DF-2500000"
B1,0.08,0.08,0.07
B2,0.07,0.08,0.07
B3,0.16,0.09,0.11

# Biological target: T2, IL-18 binding protein (IL-18BP)
# Assay: cell-based or functional assay
Binder,"Activity, +100 nM BP, DF-1000002","Activity, +100 nM BP, DF-5000003","Activity, +100 nM BP, DF-25000004","Ratio (-BP/+BP), DF-1000005","Ratio (-BP/+BP), DF-5000006","Ratio (-BP/+BP), DF-25000007"
B1,0.07,0.08,0.07,1.12,1.01,1.04
B2,0.08,0.09,0.07,0.91,0.91,0.97
B3,0.08,0.07,0.07,2.02,1.16,1.47

# Biological target: T3, interleukin 18 binding protein (IL-18BP)
# Assay: cell-based or functional assay
Binder,"HEK-Blue activity, +100 nM BP, DF-10000","HEK-Blue activity, +100 nM BP, DF-100,000","HEK-Blue activity, +100 nM BP, DF-1,000,000","Ratio (-BP/+BP), DF-10000","Ratio (-BP/+BP), DF-100,000","Ratio (-BP/+BP), DF-1,000,000"
B4,0.16,0.15,0.18,1.33,0.94,0.98
B5,0.14,0.12,0.12,2.13,1.79,1.63
B6,0.2,0.17,0.13,1,0.81,0.88
B7,0.12,0.09,0.09,1.72,1.3,1.2
B8,0.12,0.12,0.14,1.81,1.6,0.97
B9,0.13,0.12,0.14,1.64,1.1,0.93
B10,0.11,0.1,0.1,2.29,1.09,1.13
B11,0.12,0.15,0.1,1.94,1.36,1.27
B12,0.3,0.21,0.18,0.86,0.7,0.63

# Biological target: T4, IL-18 receptors on HEK-Blue IL-18 …
# Assay: cell-based or functional assay
Binder,"HEK-Blue activity, No BP, DF-10000","HEK-Blue activity, No BP, DF-100,000","HEK-Blue activity, No BP, DF-1,000,000"
B4,0.21,0.14,0.18
B5,0.29,0.21,0.19
B6,0.2,0.14,0.11
B7,0.21,0.12,0.1
B8,0.22,0.19,0.14
B9,0.21,0.13,0.13
B10,0.25,0.1,0.11
B11,0.23,0.2,0.13
B12,0.26,0.15,0.11

# Source: US20240182536A1 (MURAL ONCOLOGY, published 2024)
